Values quoted from earlier work, collected in PMC4926285.
pKd: −log10 of the molar value.

Biological target: insulin receptor (site 1) site 1 (L1 and carboxy-terminal α-chain) (Homo sapiens) (UniProt P06213)
UniProt P06213, sequence (P06213 28-182): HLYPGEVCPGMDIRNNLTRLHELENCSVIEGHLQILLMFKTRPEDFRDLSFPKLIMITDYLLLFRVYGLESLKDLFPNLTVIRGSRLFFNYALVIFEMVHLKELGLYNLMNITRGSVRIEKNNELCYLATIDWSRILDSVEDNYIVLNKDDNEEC

insulin, sequence (P01308 90-110): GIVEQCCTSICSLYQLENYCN

- pKd: 8.19
Substance: insulin (from UniProt P01308)
